Reference: paper PMC8509808, “Characterization of the Chimeric PriB-SSBc Protein” (International Journal of Molecular Sciences, 2021)

B1: dT60 (ssDNA)
DNA: TTTTTTTTTTTTTTTTTTTTTTTTTTTTTTTTTTTTTTTTTTTTTTTTTTTTTTTTTTTT
B2: dT40 (ssDNA)
DNA: TTTTTTTTTTTTTTTTTTTTTTTTTTTTTTTTTTTTTTTT
B3: dT25 (ssDNA)
DNA: TTTTTTTTTTTTTTTTTTTTTTTTT
B4: dT50 (ssDNA)
DNA: TTTTTTTTTTTTTTTTTTTTTTTTTTTTTTTTTTTTTTTTTTTTTTTTTT
B5: dT55 (ssDNA)
DNA: TTTTTTTTTTTTTTTTTTTTTTTTTTTTTTTTTTTTTTTTTTTTTTTTTTTTTTT
B6: dT20 (ssDNA)
DNA: TTTTTTTTTTTTTTTTTTTT
B7: dT15 (ssDNA)
DNA: TTTTTTTTTTTTTTT
B8: dT30 (ssDNA)
DNA: TTTTTTTTTTTTTTTTTTTTTTTTTTTTTT

Experiments:
Details in all cases: protein: recombinant; tags: none (tag-free); chain copies: 2; label: 5'-32P
[1] = molecular target: T1, PriB-SSBc (chimera KpPriB 1-98 fused to KpSSB 112-174) (Klebsiella pneumoniae, UniProt A6THB2 1-98+A6TGW7:112-174, internal_change); assay: EMSA; monomer conc.; 2 complexes; EMSA: 20 mM Tris-HCl pH 8.0, 100 mM NaCl, 25 C, 30 min, 1.7 nM 32P-ssDNA; 8% native PAGE in TBE at 4 C
[2] = molecular target: T1, PriB-SSBc (chimera KpPriB 1-98 fused to …); assay: EMSA; monomer conc.; 1 complex; EMSA: 20 mM Tris-HCl pH 8.0, 100 mM NaCl, 25 C, 30 min, 1.7 nM 32P-ssDNA; 8% native PAGE in TBE at 4 C
[3] = molecular target: T1, PriB-SSBc (chimera KpPriB 1-98 fused to …); assay: EMSA; ND; up to 5 uM protein; EMSA: 20 mM Tris-HCl pH 8.0, 100 mM NaCl, 25 C, 30 min, 1.7 nM 32P-ssDNA; 8% native PAGE in TBE at 4 C

Binder	apparent K (half saturation) [2]	also measured
B1		apparent K (half saturation) [1]: 230 ± 20 nM
B2	840 ± 60 nM	
B3	1150 ± 120 nM	
B4	290 ± 20 nM	
B5		apparent K (half saturation) [1]: 330 ± 30 nM
B6	2120 ± 180 nM	
B7		binding result [3]: no binding
B8	940 ± 80 nM	
